Holding throughout (type): cell-based
One test concerns P. aeruginosa biofilms. The test is described as follows: Antimicrobial susceptibility of biofilms grown in rotating disk reactor (viable cell counts). The conditions noted are these: Fe-unsaturated conalbumin during 48 h biofilm growth. The procedure:
P. aeruginosa biofilms for susceptibility tests were grown in a rotating disk reactor. Fe-unsaturated conalbumin (Sigma Chemical Co.) was added to standard biofilm medium at indicated concentrations for the duration of biofilm growth. Discs and attached bacteria were then washed 3 times in distilled water, and treated for 4 h in 1 ml of H2O2 (Fisher Scientific) or tobramycin (Eli Lilly, Indianapolis, Ind.) at indicated concentrations. The treated discs were washed 3 times, and bacteria were removed and dispersed in 2 ml sterile PBS by homogenization (Brinkman Homogenizer, model 10/35). Viable cell numbers were enumerated by plate counting.

In test [1] the test system is wild-type P. aeruginosa PAO1. Briefly: Biofilm formation in continuous culture flow cells (confocal microscopy). The conditions noted are these: for effect on biofilm formation, iron-saturated protein / effect on biofilm development / formation: 20 μg/ml, flow cells; for effect on biofilm formation, iron-saturated protein: Fe-saturated protein; for effect on biofilm development / formation: Fe-unsaturated protein, up to day 7. How it is done: (§1) For studies of biofilm formation, wild-type P. aeruginosa PAO1 and the surface motility mutant were grown in flow cells similar to those described previously; the size of the flow channel was 5×35×1 mm. An overnight culture diluted to 10^7 cells per ml in fresh biofilm medium was used as the inoculum and flow was arrested for 45 min. Flow of biofilm medium with and without 20 μg/ml of Fe-unsaturated or Fe-saturated lactoferrin or conalbumin (Sigma Chemical Co.) was then initiated at a rate of 170 μl/min. Images were obtained using a Biorad (Hercules, Calif.) scanning confocal microscope.

For test [2], the system named is P. aeruginosa surface motility mutant (PA01 deletion mutant). Briefly: Biofilm formation of surface motility mutant in flow cells. The conditions noted are these: in the presence of lactoferrin, FIG. 4e,f. The procedure:
(§2) P. aeruginosa strain PAO1 containing the GFP plasmid pMRP9-1 was used for most studies. Where indicated, an isogenic surface motility mutant (a PA01 deletion mutant from J. Kato (Department of Fermentation Technology, Hiroshima University, Hiroshima, Japan.) containing pMRP9-1 was used. Biofilm medium consisted of 1% Trypticase Soy Broth (Difco, Detroit, Mich.). In the growth experiments, approximately 10^3 bacteria from an overnight culture were added to 5 ml of biofilm medium containing the indicated concentrations of lactoferrin (Sigma Chemical Co., St Louis, Mo.). Cultures were incubated in acid-washed tubes at 37° C. with shaking. Colony-forming units were determined by plate counting. […] P. aeruginosa with pMRP9-1 was also grown in lactoferrin-containing effluent medium from flow cells. After one day of bacterial growth, effluent was collected on ice, filter sterilized, and growth was assessed as above.

The test system of test [3] is P. aeruginosa. The test is described as follows: Bacterial movement and behaviors (squatters, ramblers, flyers) in flow cells. The conditions noted are these: in the presence of lactoferrin; 40 parental cells, three generations; FIG. 3c,d. The procedure: (§3) Bacterial movement was assessed by using time-lapse images acquired at 1 min intervals. Motion of bacterial cells was traced visually by following individual cells. VOXblast software (VayTek, Inc, Fairfield, Iowa) was used to obtain the X-Y coordinates of bacterial cells.
(§4) Bacterial behaviors were classified as follows. Squatters remained within a 15 μm circle drawn around the point of parental cell division until the time of its cell division. Ramblers remained attached to the growth surface, but moved outside the circle. Flyers detached and were carried away by media flow. Dividing times of attached bacteria were measured by counting the number of frames between cell divisions; 60 bacterial divisions were observed and the dividing times were averaged.

Test [4] has as its system P. aeruginosa. The test is described as follows: Dividing times of attached bacteria in flow cells (time-lapse microscopy). How it is done: as §1, §3, §4
The subject of test [5] is P. aeruginosa strain PAO1. Briefly: Growth of free swimming P. aeruginosa in biofilm medium containing lactoferrin (plate counting). How it is done:
as §2

B1: conalbumin (protein, UniProt P02789 20-705, looked up)
Ovotransferrin: APPKSVIRWCTISSPEEKKCNNLRDLTQQERISLTCVQKATYLDCIKAIANNEADAISLDGGQAFEAGLAPYKLKPIAAEVYEHTEGSTTSYYAVAVVKKGTEFTVNDLQGKTSCHTGLGRSAGWNIPIGTLLHRGAIEWEGIESGSVEQAVAKFFSASCVPGATIEQKLCRQCKGDPKTKCARNAPYSGYSGAFHCLKDGKGDVAFVKHTTVNENAPDQKDEYELLCLDGSRQPVDNYKTCNWARVAAHAVVARDDNKVEDIWSFLSKAQSDFGVDTKSDFHLFGPPGKKDPVLKDLLFKDSAIMLKRVPSLMDSQLYLGFEYYSAIQSMRKDQLTPSPRENRIQWCAVGKDEKSKCDRWSVVSNGDVECTVVDETKDCIIKIMKGEADAVALDGGLVYTAGVCGLVPVMAERYDDESQCSKTDERPASYFAVAVARKDSNVNWNNLKGKKSCHTAVGRTAGWVIPMGLIHNRTGTCNFDEYFSEGCAPGSPPNSRLCQLCQGSGGIPPEKCVASSHEKYFGYTGALRCLVEKGDVAFIQHSTVEENTGGKNKADWAKNLQMDDFELLCTDGRRANVMDYRECNLAEVPTHAVVVRPEKANKIRDLLERQEKRFGVNGSEKSKFMMFESQNKDLLFKDLTKCLFKVREGTTYKEFLGDKFYTVISSLKTCNPSDILQMCSFLEGK
notes: a lactoferrin-like chicken egg host defense protein; iron chelating protein, tested Fe-unsaturated and Fe-saturated
B1: in the test with P. aeruginosa biofilms (then H2O2 4 h), the “effect of growth in conalbumin on biofilm resistance to H2O2” value is “decreased resistance to both agents in a dose-dependent manner”. The “effect of growth in conalbumin on biofilm resistance to tobramycin” value in the test on P. aeruginosa biofilms (then tobramycin 4 h) was “decreased resistance to both agents in a dose-dependent manner”. Besides, in test [1], the “effect on biofilm formation, iron-saturated protein” value is “not when iron-saturated” and the “effect on biofilm development / formation” value is on record as “prevented biofilm formation in the iron-unsaturated state”.

B2: lactoferrin (protein, UniProt P02788 20-710, looked up)
Lactotransferrin: GRRRSVQWCAVSQPEATKCFQWQRNMRKVRGPPVSCIKRDSPIQCIQAIAENRADAVTLDGGFIYEAGLAPYKLRPVAAEVYGTERQPRTHYYAVAVVKKGGSFQLNELQGLKSCHTGLRRTAGWNVPIGTLRPFLNWTGPPEPIEAAVARFFSASCVPGADKGQFPNLCRLCAGTGENKCAFSSQEPYFSYSGAFKCLRDGAGDVAFIRESTVFEDLSDEAERDEYELLCPDNTRKPVDKFKDCHLARVPSHAVVARSVNGKEDAIWNLLRQAQEKFGKDKSPKFQLFGSPSGQKDLLFKDSAIGFSRVPPRIDSGLYLGSGYFTAIQNLRKSEEEVAARRARVVWCAVGEQELRKCNQWSGLSEGSVTCSSASTTEDCIALVLKGEADAMSLDGGYVYTAGKCGLVPVLAENYKSQQSSDPDPNCVDRPVEGYLAVAVVRRSDTSLTWNSVKGKKSCHTAVDRTAGWNIPMGLLFNQTGSCKFDEYFSQSCAPGSDPRSNLCALCIGDEQGENKCVPNSNERYYGYTGAFRCLAENAGDVAFVKDVTVLQNTDGNNNEAWAKDLKLADFALLCLDGKRKPVTEARSCHLAMAPNHAVVSRMDKVERLKQVLLHQQAKFGRNGSDCPDKFCLFQSETKNLLFNDNTECLARLHGKTTYEKYLGPQYVAGITNLKKCSTSPLLEACEFLRK
notes: known iron chelating protein (Sigma Chemical Co.), proteinaceous metal chelator
Consider B2, for which the “biofilm formation by surface motility mutant” value in test [2] is “formed microcolonies and irregularly shaped biofilms in both the absence and presence of lactoferrin”. Also, the “proportion of bacteria as squatters, ramblers, flyers” value with P. aeruginosa [3] was “a significantly larger proportion of cells exhibited rambling behavior and fewer were squatters”. Besides, the “increase of dividing time of attached cells” value in the test with P. aeruginosa [4] (20 μg/ml lactoferrin vs. without) worked out at 27%. The “effect on growth of attached cells” value with P. aeruginosa [4] (concentration of lactoferrin that prevents biofilm formation) is on record as “only slightly reduced the growth of attached cells”. Further, in the test on P. aeruginosa [4] (with 20 μg/ml lactoferrin, average of 60 divisions), the “dividing time of attached cells” value worked out at 127 min. In addition, in test [5] (20 μg/ml lactoferrin (sub-inhibitory), FIG. 1), the “effect on growth rate of free swimming P. aeruginosa PAO1” value was “did not affect the growth rate”. The “concentration of lactoferrin that inhibited bacterial growth” value in test [5] (biofilm medium, 37° C. with shaking, varied for different lots) is not below 30 µg/mL. In addition, the “number of doublings in lactoferrin-containing effluent (conditioned) medium from flow cells” value in test [5] (in 22 h, spent lactoferrin-treated medium) is listed as 6 times. The “effect on biofilm development / formation” value in test [1] is recorded as “differentiated biofilm formation was completely blocked”; in test [1] (listed as Lactoferrin) it was “disrupted this pattern of development”. Further, the “effect on structure of mature biofilms” value in test [1] (5 day-old biofilms exposed to lactoferrin-containing medium for 48 h) is on record as “failed to alter their structure”.

B3: lactoferrin (protein, UniProt P02788 20-710, looked up)
Lactotransferrin: GRRRSVQWCAVSQPEATKCFQWQRNMRKVRGPPVSCIKRDSPIQCIQAIAENRADAVTLDGGFIYEAGLAPYKLRPVAAEVYGTERQPRTHYYAVAVVKKGGSFQLNELQGLKSCHTGLRRTAGWNVPIGTLRPFLNWTGPPEPIEAAVARFFSASCVPGADKGQFPNLCRLCAGTGENKCAFSSQEPYFSYSGAFKCLRDGAGDVAFIRESTVFEDLSDEAERDEYELLCPDNTRKPVDKFKDCHLARVPSHAVVARSVNGKEDAIWNLLRQAQEKFGKDKSPKFQLFGSPSGQKDLLFKDSAIGFSRVPPRIDSGLYLGSGYFTAIQNLRKSEEEVAARRARVVWCAVGEQELRKCNQWSGLSEGSVTCSSASTTEDCIALVLKGEADAMSLDGGYVYTAGKCGLVPVLAENYKSQQSSDPDPNCVDRPVEGYLAVAVVRRSDTSLTWNSVKGKKSCHTAVDRTAGWNIPMGLLFNQTGSCKFDEYFSQSCAPGSDPRSNLCALCIGDEQGENKCVPNSNERYYGYTGAFRCLAENAGDVAFVKDVTVLQNTDGNNNEAWAKDLKLADFALLCLDGKRKPVTEARSCHLAMAPNHAVVSRMDKVERLKQVLLHQQAKFGRNGSDCPDKFCLFQSETKNLLFNDNTECLARLHGKTTYEKYLGPQYVAGITNLKKCSTSPLLEACEFLRK
modifications: iron-saturated
notes: lactoferrin in the iron-saturated state
Consider B3, for which the “effect on biofilm formation, iron-saturated protein” value in test [1] is reported as “did not prevent P. aeruginosa biofilm formation”.

The record behind these values is patent US8343911B2, “Methods of inhibiting and treating bacterial biofilms by metal chelators” (University of Iowa Research Foundation, priority 2002, dated 2013).
